The source of these data is patent US20120023600A1 (Novartis, published 2012).

Numbering of substitutions follows the chain as printed.

B1: MOR04454 (Fab, V domains shown)
VH: QVQLVESGGGLVQPGGSLRLSCAASGFTFSNYGLHWVRQAPGKGLEWVSSISYYGSSTYYADSVKGRFTISRDNSKNTLYLQMNSLRAEDTAVYYCARDGSHMDKPPGYVFAFWGQGTLVTVSS
VL: DIQMTQSPSSLSASVGDRVTITCRASQGIKNYLNWYQQKPGKAPKLLIGAASSLQSGVPSRFSGSGSGTDFTLTISSLQPEDFATYYCLQYYGMPPTFGQGTKVEIKR
notes: Fab with C-terminal FLAG and 6xHis tags
B2: MOR04516 (Fab, V domains shown)
VH: QVQLVQSGAEVKKPGESLKISCKGSGYSFTNYYIGWVRQMPGKGLEWMGIIYPTDSYTNYSPSFQGQVTISADKSISTAYLQWSSLKASDTAMYYCARGIPFRMRGFDYWGQGTLVTVSS
VL: DIVLTQPPSVSGAPGQRVTISCSGSSSNIGSSFVNWYQQLPGTAPKLLIGNNSNRPSGVPDRFSGSKSGTSASLAITGLQSEDEADYYCASFDMGSPNVVFGGGTKLTVLG
notes: Fab with C-terminal FLAG and 6xHis tags; also called MOR4516
B3: MOR04456 (Fab, V domains shown)
VH: QVQLVESGGGLVQPGGSLRLSCAASGFTFNNYGMTWVRQAPGKGLEWVSGISGSGSYTYYADSVKGRFTISRDNSKNTLYLQMNSLRAEDTAVYYCARTIYMDYWGQGTLVTVSS
VL: DIVLTQSPATLSLSPGERATLSCRASQNLFSPYLAWYQQKPGQAPRLLIYGASNRATGVPARFSGSGSGTDFTLTISSLEPEDFATYYCQQYGDEPITFGQGTKVEIKR
notes: as for B1
B4: MOR04461 (Fab, V domains shown)
VH: QVQLVESGGGLVQPGGSLRLSCAASGFTFSSYWMSWVRQAPGKGLEWVSGISYSGSNTHYADSVKGRFTISRDNSKNTLYLQMNSLRAEDTAVYYCARMGIDLDYWGQGTLVTVSS
VL: DIALTQPASVSGSPGQSITISCTGTSSDVGGFNYVSWYQQHPGKAPKLMIHDGSNRPSGVSNRFSGSKSGNTASLTISGLQAEDEADYYCSTWDMTVDFVFGGGTKLTVLG
notes: as for B1

The first assay has as its target T1, mouse DKK1 (R&D Systems) (mouse, UniProt O54908 32-272).
T1 construct: Bought protein
T1 sequence (looked up): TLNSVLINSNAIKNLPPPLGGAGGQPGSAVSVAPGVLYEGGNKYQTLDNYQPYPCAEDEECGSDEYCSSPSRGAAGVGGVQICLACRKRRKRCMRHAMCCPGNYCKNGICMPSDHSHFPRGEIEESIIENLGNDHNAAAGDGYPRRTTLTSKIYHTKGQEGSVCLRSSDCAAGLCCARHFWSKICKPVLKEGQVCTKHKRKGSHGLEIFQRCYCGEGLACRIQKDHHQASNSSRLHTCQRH
As to the kind of experiment: SPR (Biacore), DKK1 immobilised on CM5 chip, Fab as analyte. On the procedure: (§1) Using these clones, kinetic SPR analysis is performed on a. […] The Fab preparations are applied in concentration series of 16-500 nM at a flow rate of 20 μl/min. Association phase is set to 60 s and dissociation phase to 120 s.
(In general: Surface plasmon resonance follows binding to a sensor surface in real time, without labels.)
With B1, binding was put at a Kd of 6 nM.
In the case of B2, binding was characterised by a dissociation constant (Kd) of 2.4 nM.
Same read-out and setting: next, B3: 11.6 nM; B4: 12.8 nM.

For another assay, the target named is T2, recombinant human DKK1 (human, UniProt O94907 32-266).
T2 construct: also called Dickkopf-1; rhDKK1
T2 sequence: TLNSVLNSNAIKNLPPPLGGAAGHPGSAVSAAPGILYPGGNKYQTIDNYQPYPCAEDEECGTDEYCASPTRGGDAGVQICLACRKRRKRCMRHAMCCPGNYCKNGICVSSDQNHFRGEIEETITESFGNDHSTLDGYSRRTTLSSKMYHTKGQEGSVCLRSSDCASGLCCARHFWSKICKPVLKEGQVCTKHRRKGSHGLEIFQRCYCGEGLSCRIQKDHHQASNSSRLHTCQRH
The description is as above. On the procedure: as §1
With B1, the equilibrium dissociation constant (Kd) (usually the concentration at which binding is half-saturated) is 3.2 nM.
On the same count and under the same terms, next, B2: 2.6 nM.
Take B3: the Kd was 7.9 nM.
For B4, the Kd was 7.6 nM.

A further assay has as its target T3, cynomolgus DKK1 (cynomolgus monkey (Macaca fascicularis), UniProt A0A7N9IE82 32-266).
T3 construct: also called cyno DKK1; monkey DKK1 (Novartis)
T3 sequence: T2 sequence with H114N, T150S, S166T
The assay is described as above. On the procedure: as §1
B1 yielded a Kd of 2.7 nM.
With B2, the Kd stood at 1.9 nM.
B3 had a Kd of 8.1 nM.
The molecule B4 gave a Kd of 7.3 nM.

The next assay concerns the target T1, mouse DKK1 (R&D Systems). Described as above. The source holds these as a separate data set. On the procedure:
as §1
B1: the equilibrium dissociation constant (Kd) amounted to 6 nM.
Still for that read-out and setting: next, B2: 2.4 nM; B3: 11.6 nM.
Regarding B4, the affinity, expressed as Kd, was 12.8 nM.

The next assay concerns the target T2, recombinant human DKK1. The description is as above. This is another data set of the same source. On the procedure: as §1
As for B1, the Kd came to 3.2 nM.
The same measure, in the same setting: next, B2: 2.6 nM.
Same read-out and setting: next, B3: 7.9 nM; B4: 7.6 nM.

In another assay the target is T3, cynomolgus DKK1. The description is as above. This is another data set of the same source. On the procedure: as §1
Consider B1, for which the dissociation constant (Kd) came out at 2.7 nM.
Regarding B2, the affinity, expressed as Kd, was 1.9 nM.
Molecule B3 had an equilibrium dissociation constant (Kd) of 8.1 nM.
B4 gave a Kd of 7.3 nM.

The next assay concerns the target T1, mouse DKK1 (R&D Systems). The description is as above. This is another data set of the same source. On the procedure:
as §1
For B1, binding was characterised by a dissociation constant (Kd) of 6 nM.
In turn, B2 registered a Kd of 2.4 nM.
With B3, binding was characterised by a dissociation constant (Kd) of 11.6 nM.
B4 registered a Kd of 12.8 nM.

For the next assay, the target named is T2, recombinant human DKK1. Described as above. The source holds these as a separate data set. On the procedure: as §1
Regarding B1, the Kd was 3.2 nM.
B2: the Kd was 2.6 nM.
In the case of B3, the Kd came to 7.9 nM.
Take B4: the Kd was determined as 7.6 nM.

The next assay deals with T3, cynomolgus DKK1. Described as above. This is another data set of the same source. On the procedure:
as §1
With B1, the Kd is 2.7 nM.
In the case of B2, binding was put at a Kd of 1.9 nM.
Take B3: binding was put at a Kd of 8.1 nM.
Take B4: the dissociation constant (Kd) amounted to 7.3 nM.

Another assay addresses T4, DKK1-APP (human, UniProt O94907 32-266).
T4 sequence: T2 sequence
As to the kind of experiment: cell-based or functional assay.
Consider B1, for which the “Luciferase reporter assay; EC50” value came out at 83 nM.
As to B2, the “Luciferase reporter assay; EC50” value turned out to be 42 nM.
Turning to B3, the “Luciferase reporter assay; EC50” value was determined as 95 nM.
As for B4, the “Luciferase reporter assay; EC50” value worked out at 57 nM.

The target in the next assay is T4, DKK1-APP. Kind of assay: cell-based or functional assay. This is another data set of the same source.
Turning to B1, the response was half-maximal at 83 nM (EC50).
For B2, the midpoint of the response, the EC50, lay at 42 nM.
Take B3: the concentration for a half-maximal effect (EC50) (in general, the concentration giving half of the maximal effect) turned out to be 95 nM.
Consider B4, for which the “EC50” value is 57 nM.
